This series concerns Bacillus subtilis DB104 (SP-AmyQ fusion secretion). Description: AmyQ secretion efficiency, weighted average sort bin (1 = best secretion, 10 = worst) (bin number (weighted average, 1-10)); higher = lower secretion efficiency. A digest of the protocol: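 With fluorescein-starch as substrate, a B. subtilis DB104 library expressing mature AmyQ fused to designed signal peptides (integrated at amyE) was encapsulated at about 0.3 cells per ~65 nL alginate bead. After about 13 h at room temperature, beads were nile red stained, and occupied beads were sorted by large-particle flow cytometry into 10 equally populated bins by green/red fluorescence ratio. Illumina sequencing of the amplicons in each bin was used to calculate the secretion score, which is the read-frequency-weighted average bin number, normalised to beads per bin, with low-abundance sequences left out.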

The text below walks through data of the supplement of paper PMC9942255.

Several values for one entry are separate records, joined by “and”; a condition that tells them apart may be missing. Equal entries are not always repeated.

As for MKKERGGTYVLCLSLSPLVSTNEVFAATT, the AmyQ secretion efficiency turned out to be 8.09.

Sequence MKKWLIIAVSLAIAIVLFMSVSFFAKAAGM yielded an AmyQ secretion efficiency of 5.66.

MRGKSAVLLSLIMLIAGFLISFSFKK gave an AmyQ secretion efficiency of 6.28.

MKKKSTVFLSVVLVTTVFLVKQQESVAQAKQL: the AmyQ secretion efficiency came to 2.06.

Sequence MRSYIKVLTMCFLGLILFVFSSLPTALADNS gave an AmyQ secretion efficiency of 2.22.

Take MAIIIAIIAAVIVIAALITFNVFNASPG: the AmyQ secretion efficiency amounted to 7.58.

MKKRLIAPMLLSAASLAFFAMSGSPQAAAY showed an AmyQ secretion efficiency of 5.7.

Consider MKLKSKLFVICLAAAAIFRKKKVSANAEALDF, for which the AmyQ secretion efficiency came out at 6.32.

In the case of MKKQIITATTAVVLGSTLFAGATSAQSI, the AmyQ secretion efficiency turned out to be 1.92.

MRKRKILLSSALSLGMLVSAAPVLATSS came in with an AmyQ secretion efficiency of 2.04.

MRKKRQVCLWILVLLLSCLSGKSAYAATS returned an AmyQ secretion efficiency of 2.64.

The sequence MKKRKRRNFKRFIAAFLVLALMISLVPADKLAKST gave an AmyQ secretion efficiency of 4.89.

Turning to MKKRLIAPMLLSAASLAFFAMSGSGAQAAAY, the AmyQ secretion efficiency was 3.78.

MPYLKRVLLLLVTGLFMSLFAVTATMSAQTG displayed an AmyQ secretion efficiency of 1.29.

In the case of MSKRLIAPMLLSAASLAFFAMSGSAQAAAY, the AmyQ secretion efficiency came to 3.13.

Sequence MNKFLKSNFRYYTTGALGISLLASSNFIKASND returned an AmyQ secretion efficiency of 7.

MPYLKRVLLLLVTGLFMSLFAVTATASHQTG registered an AmyQ secretion efficiency of 1.34.

Turning to MISKKLWISLLFALTLIFTMAFSNMSAQAAGK, the AmyQ secretion efficiency came out at 1.95.

MKKRLIAPMLLSAASLAFFAMSGSAQAARR displayed an AmyQ secretion efficiency of 6.96.

Sequence MKKVLMAFIICLSLILSVLAAPPSGAKVESV displayed an AmyQ secretion efficiency of 4.98.

MLKKIALTLCPAIVGSLLFFTAPASARKR returned an AmyQ secretion efficiency of 6.88.

MKKKQVMLKRTAAAGLGLTALHSAPAAKAAPL: the AmyQ secretion efficiency turned out to be 6.55.

With MMSLLSTLLIGIMLLTFAPSAFAKQD, the AmyQ secretion efficiency is 1.88.

Turning to MSKTGRYTKAVIVIAALITFNVRNASPG, the AmyQ secretion efficiency is 4.05.

In the case of MKKAFLVFLSVVLVTTVFLVKQQESVSGAQAKQL, the AmyQ secretion efficiency is 4.03.

On to MLKKIALTLCPAIVGSLLFFTAPASADEE, for which the AmyQ secretion efficiency worked out at 3.58.

MLKKIALTLCPAIVGSLLFFTAPWSAHVS returned an AmyQ secretion efficiency of 4.74.

Sequence MKKWMITIAMLILAGIALFVFISPTSSSTTFLKSHKT gave an AmyQ secretion efficiency of 7.57.

MKRFSTAYLLLLGILCSAAVFLIGAPSRALGAEV displayed an AmyQ secretion efficiency of 3.05.

The sequence MKKLLAAGIIGLLTVSIASPSFRAEK registered an AmyQ secretion efficiency of 7.12.

In the case of MKKKLAAGLTASAIVGTTLVGGGAEAATI, the AmyQ secretion efficiency worked out at 4.73.

As for MTKKAWFLPLVCVLLISGWLAPAASMSAQTT, the AmyQ secretion efficiency is 3.47.

Sequence MAIIIAIIAAVIVIAALITFNVNNASPG had an AmyQ secretion efficiency of 7.54.

Regarding MRPVFPLILSAVLFLSCFFGARQTEASNSKR, the AmyQ secretion efficiency came to 2.41.

As for MKYCQKSISRFLVSLIIGTFVISVPFMANAQSD, the AmyQ secretion efficiency came to 3.17.

For the sequence MKRILFLLSTLLIGIMLLTFAPSAFAKQD, the AmyQ secretion efficiency worked out at 1.83.

MFLAKRVSALTPSTTLAITAKAKEL: the AmyQ secretion efficiency turned out to be 7.34.

MNKPTKLFSTLALAAGMTEDEAGGAGTIHAQQP displayed an AmyQ secretion efficiency of 2.79.

MKRITINIITMFIAAAVISLTGTAEAASS had an AmyQ secretion efficiency of 2.16.

In turn, MRKVVGFLSVLGLAAVFPLTAQAEKA returned an AmyQ secretion efficiency of 2.03.

The sequence MRKILLSSALSLGMLVSAAPVLATSS came in with an AmyQ secretion efficiency of 1.66.

The sequence MQNRLFRVCFLAALIMAFTLPNSVYAQKP returned an AmyQ secretion efficiency of 1.12.

For the sequence MKKVLMAFIICLSLILSVLAAPPSGCKAESV, the AmyQ secretion efficiency was 1.89.

For the sequence MKTKTLFIFSAILTLSIFAPNETFAQTK, the AmyQ secretion efficiency amounted to 1.96.

On to MKKKQVMLALTAAAGLGLTALHDAPAAKAAPL, for which the AmyQ secretion efficiency was 2.66.

On to MKVLLSALLLLLFAFEPSYSGKKL, for which the AmyQ secretion efficiency was found to be 5.87.

On to MPIKKKVMMCLAVTLVFGSMSFPTLTNSGGDED, for which the AmyQ secretion efficiency stood at 6.4.

As to MMKKLFHSTLIVLLFFSFFGVQPGHAKKQ, the AmyQ secretion efficiency was found to be 2.96.

MLCVMMLLFSAIASFPVSGQAKDQ showed an AmyQ secretion efficiency of 5.05.

In the case of MLCVMMLLFSAIASFPVSAQCKDQ, the AmyQ secretion efficiency worked out at 6.94.

With MLCVMMLLFSAIAKRRVSAQAKDQ, the AmyQ secretion efficiency was determined as 7.83.

Sequence MFNRLFRVCFLAALIMAFTLPNSVYAQPK showed an AmyQ secretion efficiency of 1.86.

For MKKKLKKGLTASAIVGTTLVVTPAEAATI, the AmyQ secretion efficiency is 5.93.

For the sequence MRNLTKTSLLLAGLCTAAQMVFVTHMSAEES, the AmyQ secretion efficiency came to 3.28.

In turn, MKSKWMSGLLLVAVGFSFAIVMVHAGET displayed an AmyQ secretion efficiency of 5.38.

The sequence MKRLFMKASLVLFAVVFVFAVKGAKRAKAETH registered an AmyQ secretion efficiency of 2.04.

Sequence MKRQKQKYLLLGILCSAAVFLIGAPSRALGAEV showed an AmyQ secretion efficiency of 3.43.

Consider MKKKRKRLAAGLTASAIVGTTLVVTPAEAATI, for which the AmyQ secretion efficiency was 2.55.

The sequence MKVCQKSIVRFLVSLIIGTFVITSVPFMANAQSD gave an AmyQ secretion efficiency of 3.

Take MKKVLMAFIICLSLILSVLAAPPSGAKSESV: the AmyQ secretion efficiency was 3.92.

Sequence MRFTKVVGFLSVLGVFPLTAQAEKA displayed an AmyQ secretion efficiency of 5.6.

Regarding MSGTCSIVCLWILVLLLSCLSGKSAYAATS, the AmyQ secretion efficiency stood at 3.6.

In the case of MGLGKKLSVAVAASFMSLSISLPGEQAAEG, the AmyQ secretion efficiency was determined as 3.68.

On to MKKSYKATALFLGLTPAGANAADL, for which the AmyQ secretion efficiency is 8.17.

In the case of MKKAAAVLLSLGLVFDKGYEPGHVAEAKTK, the AmyQ secretion efficiency amounted to 2.85.

For MKRLFMKARRRLFAVVFVFAVKGAPAKAETH, the AmyQ secretion efficiency came to 6.05.

Turning to MKKKQQRLALTAAAGLGLTALHSAPAAKAAPL, the AmyQ secretion efficiency was 5.39.

Take MKKARRVLLSLGLVFGFSYGAGHVAEAKTK: the AmyQ secretion efficiency worked out at 2.43.

The sequence MKRVLTGSVLSLGLLVSASPAFATSP yielded an AmyQ secretion efficiency of 1.56.

As for MRKKKWRVGLLAGCLAAGGFSYNAFATEN, the AmyQ secretion efficiency was 5.68.

MYKKFVPRTQYSRLFFVSFEMMENPHALDY had an AmyQ secretion efficiency of 7.24.

Sequence MRGKSAVLLSLIMLIAGFLIHFSFQM gave an AmyQ secretion efficiency of 6.42.

For MNSYINVLTMCFLGLILFVPTALADNS, the AmyQ secretion efficiency turned out to be 1.26.

The sequence MKKLLAAGIIGLSIASPSFAAEK returned an AmyQ secretion efficiency of 4.78.

In the case of MKVCQKSIVRFLVSLIIGTFVISVPFMANAQDD, the AmyQ secretion efficiency turned out to be 2.65.

MMKKGLLAGALTATVLFGTCAVGVPGIISPKTAEAASQ registered an AmyQ secretion efficiency of 1.35.

Take MKKWMASTSFSMGLFLAAAVLLCLMVPQQIQGASS: the AmyQ secretion efficiency was 5.01.

Take MKSKGSIMACLILFSFTITTFINTETISNFSN: the AmyQ secretion efficiency was determined as 7.44.

As for MKKVLMAFIICLSLILSVLAAPPSGVKAESV, the AmyQ secretion efficiency is 1.85.

Sequence MKLAKRVSALTPSTTLAITAKADEE gave an AmyQ secretion efficiency of 6.16.

In turn, MGGGFSILIMMTGLLFGLTSPAFAAEK gave an AmyQ secretion efficiency of 3.63.

The sequence MKWMCSICCAAVLLAGGAWQAEAV showed an AmyQ secretion efficiency of 3.41.

The sequence MRRKRKRTSLLLAGLCTAAQMVFVTHASAEES came in with an AmyQ secretion efficiency of 2.89.

Regarding MKKLLAAGIIGLLTVTSIASPSFAAEK, the AmyQ secretion efficiency is 2.48.

As for MLKKIALTLCPAIVGSLLFFTAPFSAHVS, the AmyQ secretion efficiency turned out to be 5.46.

Regarding MKRLRRKRRRWMVFLMNWVTPDRKTAAAAVY, the AmyQ secretion efficiency was 6.85.

In turn, MKKVLMAFIICLSLILSVLAAPPSGMKAESV showed an AmyQ secretion efficiency of 1.84.

As for MKKGIIRFLLVSFVLFFALSTGITGVQSAPA, the AmyQ secretion efficiency is 4.46.

The sequence MRNLTKTSLLLAGLCTAAQMVFVTHVSAEES came in with an AmyQ secretion efficiency of 3.09.

With MKKCLLFLTTIALILSLSTNAFAANR, the AmyQ secretion efficiency worked out at 1.56.

For MKLRKMVLTGSVLSLGLLVSASPAFATSP, the AmyQ secretion efficiency is 1.54.

With MKKAAAVLLSLGLVFIFVFAAVHVAEAKTK, the AmyQ secretion efficiency was 2.59.

Consider MKSCKQLIVCSLAAILLLLSLTFIPSVSFAADS, for which the AmyQ secretion efficiency came out at 3.91.

The sequence MKNMSCKLVVSVTLFFSFLTIGPLAHPQNS came in with an AmyQ secretion efficiency of 5.55.

Take MKSKWMSGLLLVAVGFSFTQVMVHPGET: the AmyQ secretion efficiency is 7.16.

In the case of MGGSILIQVMIMFTLLLTMAFSADAADS, the AmyQ secretion efficiency is 5.96.

Sequence MLKKIALTLCPAIVGSLLFFTDEDDEEASAHVS yielded an AmyQ secretion efficiency of 5.14.

MNKKYFVLIVCIIFTSALFPTFSSATAAQG had an AmyQ secretion efficiency of 1.33.

Turning to MHLITAAGAVCLAVVLIAGCRFNEDQHQAEGENT, the AmyQ secretion efficiency turned out to be 5.34.

For the sequence MKLAKRVSALTPSTTLAIVIFAKAKEL, the AmyQ secretion efficiency was found to be 8.15.

In the case of MKLSVKIAGVLTVAAAAMTAKMYATMKGN, the AmyQ secretion efficiency is 6.84.

Regarding MKKRKKKFFGPIILAFILFAGAIAIPS, the AmyQ secretion efficiency stood at 6.45.

MKRLLVSLRVWMVFLMNWVTPDRKTYAAAVY showed an AmyQ secretion efficiency of 6.89.

As to MKKIVSILFMFGLVMFFFTFTAIGVFAADK, the AmyQ secretion efficiency turned out to be 4.52.

Turning to MKSRTIWTIILGALLVCCIAVAYTLTKSQAGASSS, the AmyQ secretion efficiency was 5.1 and 5.65.

MKVPKTMLLSTAAGLLLSLTATSFSAHYV: the AmyQ secretion efficiency was 6.3.

In turn, MKKWLIIAVSLAIAIVLFMYTKGEQKAAGM displayed an AmyQ secretion efficiency of 6.98.

In the case of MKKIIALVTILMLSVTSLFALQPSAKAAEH, the AmyQ secretion efficiency amounted to 2.46.

Consider MRSYIKVLTMCFLGLILFVPTHLADNS, for which the AmyQ secretion efficiency came out at 6.38.
